Measured values reported in PMC12373997.

Biological target: Taxol-stabilized microtubules polymerised from purified porcine brain tubulin (porcine) (UniProt P02550)
Assay: co-sedimentation; tubulin co-sedimentation: taxol-stabilized MTs (varied, α/β-tubulin heterodimer molarity) with 1 µM purified N-clamp, 0.25 mg/ml BSA, BRB80-MT buffer (80 mM PIPES, 1 mM MgCl2, 1 mM EGTA, 12.5% glycerol, pH 6.8), 20 min at room temperature, 200,000 g 10 min 27 °C; SDS-PAGE densitometry of pellet; apparent Kd from a quadratic fit

Chain of A. thaliana augmin N-clamp with AUG8 lacking its N-terminal extension (O48767 whole entry): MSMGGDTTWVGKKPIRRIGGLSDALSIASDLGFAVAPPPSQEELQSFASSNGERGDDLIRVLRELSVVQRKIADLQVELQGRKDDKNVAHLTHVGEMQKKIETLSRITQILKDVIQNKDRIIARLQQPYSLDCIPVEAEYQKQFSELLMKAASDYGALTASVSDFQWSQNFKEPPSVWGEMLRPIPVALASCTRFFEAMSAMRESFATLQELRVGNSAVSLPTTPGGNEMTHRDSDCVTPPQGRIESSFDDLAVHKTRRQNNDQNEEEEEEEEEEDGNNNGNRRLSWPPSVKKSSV
Chain of A. thaliana augmin N-clamp with AUG8 lacking its N-terminal extension (Q94BP7 whole entry): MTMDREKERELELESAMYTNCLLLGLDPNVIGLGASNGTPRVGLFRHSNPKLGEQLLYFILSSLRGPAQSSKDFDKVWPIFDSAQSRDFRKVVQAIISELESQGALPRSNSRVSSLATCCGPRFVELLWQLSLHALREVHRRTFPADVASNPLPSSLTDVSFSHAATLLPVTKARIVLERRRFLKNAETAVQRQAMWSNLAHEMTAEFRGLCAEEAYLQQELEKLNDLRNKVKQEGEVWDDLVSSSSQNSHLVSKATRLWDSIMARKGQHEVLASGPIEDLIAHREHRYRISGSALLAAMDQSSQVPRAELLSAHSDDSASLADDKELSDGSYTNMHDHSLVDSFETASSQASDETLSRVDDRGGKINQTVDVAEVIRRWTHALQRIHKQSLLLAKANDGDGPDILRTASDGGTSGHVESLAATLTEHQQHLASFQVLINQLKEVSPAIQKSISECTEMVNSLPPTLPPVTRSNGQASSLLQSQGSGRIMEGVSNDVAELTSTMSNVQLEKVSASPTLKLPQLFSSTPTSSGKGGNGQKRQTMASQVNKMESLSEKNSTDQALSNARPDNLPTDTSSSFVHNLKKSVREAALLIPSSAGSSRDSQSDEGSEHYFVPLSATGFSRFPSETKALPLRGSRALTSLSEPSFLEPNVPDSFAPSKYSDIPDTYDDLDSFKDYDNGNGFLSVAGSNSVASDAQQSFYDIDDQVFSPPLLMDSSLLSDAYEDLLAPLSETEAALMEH
Chain of A. thaliana augmin N-clamp with AUG8 lacking its N-terminal extension (Q0WTP1 whole entry): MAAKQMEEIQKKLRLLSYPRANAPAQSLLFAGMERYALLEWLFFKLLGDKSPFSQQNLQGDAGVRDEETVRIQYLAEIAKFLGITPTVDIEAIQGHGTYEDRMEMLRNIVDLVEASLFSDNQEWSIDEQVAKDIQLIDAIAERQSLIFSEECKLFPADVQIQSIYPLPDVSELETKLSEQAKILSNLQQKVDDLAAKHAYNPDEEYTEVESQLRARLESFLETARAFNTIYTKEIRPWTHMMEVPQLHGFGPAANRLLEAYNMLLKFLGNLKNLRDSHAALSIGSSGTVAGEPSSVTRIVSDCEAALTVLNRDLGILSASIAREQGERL
Chain of A. thaliana augmin N-clamp with AUG8 lacking its N-terminal extension (Q9SUH5 whole entry): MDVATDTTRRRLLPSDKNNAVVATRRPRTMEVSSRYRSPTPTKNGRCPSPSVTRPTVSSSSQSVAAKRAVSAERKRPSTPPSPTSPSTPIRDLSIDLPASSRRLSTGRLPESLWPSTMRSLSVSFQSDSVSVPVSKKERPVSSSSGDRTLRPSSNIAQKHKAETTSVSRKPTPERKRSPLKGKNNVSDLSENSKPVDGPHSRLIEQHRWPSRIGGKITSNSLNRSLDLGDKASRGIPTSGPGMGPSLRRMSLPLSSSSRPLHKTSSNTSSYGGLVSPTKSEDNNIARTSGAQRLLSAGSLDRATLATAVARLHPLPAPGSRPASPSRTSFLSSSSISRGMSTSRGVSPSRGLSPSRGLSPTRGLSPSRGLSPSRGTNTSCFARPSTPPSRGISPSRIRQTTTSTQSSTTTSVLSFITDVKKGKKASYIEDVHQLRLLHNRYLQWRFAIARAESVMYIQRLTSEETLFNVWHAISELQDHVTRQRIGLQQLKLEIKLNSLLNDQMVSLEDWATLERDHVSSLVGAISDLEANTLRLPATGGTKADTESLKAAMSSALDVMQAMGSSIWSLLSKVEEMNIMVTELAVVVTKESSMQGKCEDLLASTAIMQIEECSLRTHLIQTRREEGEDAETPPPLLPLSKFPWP
Chain of X. laevis augmin N-clamp with HAUS8 lacking its N-terminal extension (Q0IHJ3 whole entry, looked up, one chain of several): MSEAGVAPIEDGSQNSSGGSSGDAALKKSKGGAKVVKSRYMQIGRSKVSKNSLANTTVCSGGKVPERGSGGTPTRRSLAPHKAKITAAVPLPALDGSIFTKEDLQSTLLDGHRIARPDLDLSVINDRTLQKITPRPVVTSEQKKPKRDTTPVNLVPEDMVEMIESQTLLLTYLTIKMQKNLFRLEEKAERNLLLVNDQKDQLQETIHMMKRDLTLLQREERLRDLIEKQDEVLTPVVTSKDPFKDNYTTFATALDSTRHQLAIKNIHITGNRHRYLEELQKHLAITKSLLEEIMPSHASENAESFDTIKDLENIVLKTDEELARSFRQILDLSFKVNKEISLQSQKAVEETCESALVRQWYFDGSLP
Chain of X. laevis augmin N-clamp, wild type (HAUS2, HAUS6, HAUS7-EGFP-HIS8, HAUS8-HIS8) (Q0IHJ3 whole entry, looked up, one chain of several): as above

Substance | Kd [nM]
A. thaliana augmin N-clamp with AUG8 lacking its N-terminal extension (from UniProt O48767 1-296; Q94BP7 1-741; Q0WTP1 1-329; Q9SUH5 1-644) (complex) | 2100
H. sapiens augmin N-clamp with HAUS6^4A-mut (K84A, R90A, K91A, K98A) (from UniProt Q9NVX0 1-235; Q7Z4H7 1-955; Q99871 1-358; Q9BT25 1-410) (complex) | 5600
X. laevis augmin N-clamp with HAUS8 lacking its N-terminal extension (from UniProt Q0IHJ3 1-367; Q0IHJ3 1-367; Q0IHJ3 1-367) (complex) | 2200
H. sapiens augmin N-clamp, wild type (HAUS2, HAUS6, HAUS7-EGFP-HIS8, HAUS8-HIS8) (from UniProt Q9NVX0 1-235; Q7Z4H7 1-955; Q99871 1-358; Q9BT25 1-410) (complex) | 800

These reach a lower Kd. Values come first.

Kd [nM] | Substance
600 | X. laevis augmin N-clamp, wild type (HAUS2, HAUS6, HAUS7-EGFP-HIS8, HAUS8-HIS8) (from UniProt Q0IHJ3 1-367; Q0IHJ3 1-367; Q0IHJ3 1-367) (complex)
40 | GST-tagged D. melanogaster augmin N-clamp (Msd1, Dgt6, Msd5-EGFP-GST, Dgt4-HIS8) (from UniProt Q9W0G7 1-138; Q9VAP2 1-654; Q9W4M8 1-188) (complex)
10 | A. thaliana augmin N-clamp, wild type (orthologs of HAUS2, HAUS6, HAUS7-EGFP-HIS8, HAUS8-HIS8) (from UniProt O48767 1-296; Q94BP7 1-741; Q0WTP1 1-329; Q9SUH5 1-644) (complex)
